According to the DeepSol protein solubility set:

Assay: soluble on expression in E. coli; label from the status in PepcDB or PDB records

Row | Sequence | soluble on expression in E. coli
1 | MQARQPTVAPFDTAKLDRLMEEAGIDVIAATSKHNTQYLMGGYKFIFFAAMDAIGHSRYLPMVIYEKGAPDHSAYVGNRMEGAEHQNNPFWTPAVHTATWGTQDAAGLAVEHLKKIGKASGRIGIEPAFLPSDARDLLASRLDGARFVDATHVLERLRAVKTADELAKLRRASELITDSMLATIAAARAGSTKLEIIEQLRREETNRGLHFEYCLLTLGASHNRAGSPQAWAEGEILSIDSGGNYHGYIGDLCRMGVLGEPDAELEDLLAEVERIQQAAFAKVRAGVLGSEMIVAAEAELKASPSAAFTDFFCHGMGLITHEAPFLMTNHPVAYEGIDADKPLEAGNVISVETTMLHPKRGFIKLEDTLAITDKGYEMFGDRGRGWNRGGVLEHHHHHH | not soluble
2 | MCMRRTLYRLMIELTNGRFTSYILRKFAQSRLSSIIIPSYVKVFQINQDEMEKGLKEYRTLHELFTRKLKEGKRSIDTDASSIVSPVDGVFADYGPIEDAKTFDIKGKRYSIVDMLGNEERAQRYAGGTYMVIYLSPSHYHRIHSPLSGSVTERFVLGRKSYPVNAAGMEYGKEPLSKNYRSVTEVNSDGEHMALVKVGAMFVNSIELLHERDTVQKGEEMAYFTFGSTVVLLFEKDMIEVVQELKSGQELRLGEKIATRLAHKMAGDPLEHHHHHH | soluble
3 | MAEKFIKHTGLVVPLDAANVDTDAIIPKQFLQKVTRTGFGAHLFNDWRFLDEKGQQPNPDFVLNFSQYQGASILLARENFGCGSSREHAPWALTDYGFKVVIAPSFADIFYGNSFNNQLLPVKLSDAEVDELFALVKANPGIHFDVDLEAQEVKAGEKTYRFTIDAFRRHCMMNGLDSIGLTLQHDDAIAAYEAKQPAFMR | not soluble
4 | MAMSLREELWLWKKEKLAEHVANNLRKKKHEVWIARDREEILERVKELIPEGATVSAGGSLTLADTGVIELLRSGRYNFLDRAAAKTREEVEEIYRKSFWADYYFTSVNAITEDGKLVFLDGNGNRVAAVVFGPKNVVVIASVNKVVKDVEEARERLRYISPMNSKRLNLETPCTKTGFCADCSSPQRICDYFLVVESGVRQPGRFKVILTLEDFGLLEHHHHHH | not soluble
5 | MNYQDVLDFWFAPDHTNFWFAKDSLFDDEIRTQFSTVHQQATQAELWSWRQTVEGRLAEIIVLDQFSRNLYRDQAQAFAQDSMALALAQEAITQQLDAQLSPEQRSFLYMPFMHSESKLIHEFALKLFQKLGNEINLSFEKKHKVIIDQFGRYPHRNAILGRQSTPEELEFLTQPNSHF | not soluble
6 | MEGVQEVEIDAPLSGWHPAEGEDASFSQSINYPASSVNMADDQNISAQIRGKIKNYAAAGKVQQGRLVVNGASMPQRIESDGSFARPYIFTEGSNSVQVISPDGQSRQKMQFYSTPGTGTIRARLRLVLSWDTDNTDLDLHVVTPDGEHAWYGNTVLKNSGALDMDVTTGYGPEIFAMPAPIHGRYQVYINYYGGRSETELTTAQLTLITDEGSVNEKQETFIVPMRNAGELTLVKSFDWLEHHHHHH | not soluble
7 | MSLNRRHTIKHNFPIVGHFRYLLEKIGPELRQYIVANNREELPFNRRQRSWIYASSKQENNYQGFGTDQDQNSPGFVFIKPSMFSYAVKEGHPNKKKPDFVPCAKIMGAYNKRRRPYRPYSIINISGMSYGSLSARAVESLNKGALKAGCYQNTGEGSLAPHHKHGADIMFHFGTGYFGVRDEHGNFSMSKLKALVEANPCIRAIDLKLSQGAKPGKGGVLPASKITQEIADIRGLPMGKDVISPAYHSVFSNVPEMMDFIENIAQETGLPVGFKSAVGKMEMWVELADRMLEKGYGPDFITIDGGEGGTGAAPPAFADHVSLPFVYAFSNVYKIFAERGLTDRIVFAASGKLGFPESSLMAFALGADVIHVAREAMMSIGCIQAQVCHNNTCPSGVATQNKWLQSGIDVPLKADRLYNYIKNLRKEVLEITHACGYEHPSQMTMTDIDISMGDNNLTMPLVDAYKYNKIPVNFESMQKLADEGHHHHHH | not soluble
8 | MGSDKIHHHHHHMQPYYWESAHGNFGDDLNLWLWDFLMPGFRDVHPETLLVGVGTVLNRALLPEGQHKLVIGSGFGYGSLPDMSRPEEWDIRSVRGPLTAKALGLPPEKGVIDPAVMLADMPEFQKLPKLYKKSFVPHWESAVAGVWASIVPKVGLTYIDPCGEAKAVIRQILQSEVIIAESMHGAIIADALRVPWVAVSTSASINSFKWNDWASTLGVTYKPLRVPLSSRAEAQIKGESFWGMSFKNHQPAPENPNDLAVDAAVLEQARGPKQTGLRTAVKQILAGPAMLNLWKASQAEPQLSRDSVLQERKARFLEVIEGVRRDYGIAAVS | not soluble
9 | FFSGLFQRKSDAPVTTPAELADAIGLSYDTYTGKQISSQRAMRLTAVFSCVRVLAESVGMLPCNLYHLNGSLKQRATGERLHKLISTHPNGYMTPQEFWELVVTCLCLRGNFYAYKVKAFGEVAELLPVDPGCVVYALGRCQRWPEGDRRECYSAR | soluble
10 | MGSDKIHHHHHHMIGLNCKPLYIENAENQLYNPTLNIKTTMTYLETAAQFYSEVAQTPQVGLCCVQSTPLQLPGLKIPLSMQEMNYGCGTTVHPTELGKQPTVLYVGVGGGLEALQFAYFSRRPGAVIAVDPVAAMREAAARNLEMALTDNPWFESSFVEIREGDAFNLPVADGSVDIVAQNCLFNIFEPEDLTRALKEAYRVLKCGGRLQMSDPIATSPIPAHLQQDERLRAMCLSGALTYEEYTQRIIDAGFGQIEIRARRPYRLLDSQTYNLETHLLLESLDSVSFKVPIPEDGACIFTGKTAIYAGCEDFFDDKAGHILQRGIPATVCDKTAAKLATVKPKEVIITDSTWHYNGGGCC | not soluble
11 | SMSNTTIEDEDVKARKQEIIKVTEQLIEAINNGDFEAYTKICDPGLTAFEPEALGNLVEGMDFHRFYFENALSKSNKPIHTIILNPHVHLVGDDAACIAYIRLTQYMDGSGMPKTMQSEETRVWHRRDGKWQNVHFHRSGSPTV | soluble
12 | GPGSMPSLANGLRCPDALITRTLNPLLNGPKFAVIYCGNHQYKVAVGDVIAVQRLRVEIGSHIALKKVLMVGGPRFTAIGRPLLEGVRVTAQVEEQKRMRNVVSLFATPGRRHVRWVDAPHAATVIRICEIFYSPNVVGELDKYKGELLETFTPGQHTNPVYPVDDGYDVFRKKDKEAMENATTFLDLLGGV | not soluble
13 | MGSDKIHHHHHHMQMFCYQCSQTANGTGCTEYGVCGKSPTVARLQDNLVFAIKGISAYYYHARELGYDDPEIAGFLDEALYSTLTNVNFDAQSFVEYALEAGRMNLKAMQLLKKAHIETYGEPTPVEVETGTKKGKGIIVTGHNLKALEELLKQVEGTNVYVYTHSEMLPAHGYPGLRKYKNLIGNLGKAWYDQRKLFAEYPVAILGTSNCVLIPSESYRDRMFTTSIARLPGVKHIDGYDYTEVIEKAKSLPDLEEKPGSYKLRTGFSTSVVVSLADKIKELVEAGKIKHFLVVGGCDVPFKRNEYYREFVQKLPKETVVITLACGKFRINDLDLGDIDGIPRLIDVGQCNDTIVAIEIAQALAKVFGVEVTELPLTLVLTWMEQKAVAILWTLLALGLKNIYVGPVLPAWVNEDILKVLTAEFGLKTISEP | not soluble
14 | MILDKKSYDLLSYLLKLETPETVMAISHALNQSRRKVYYQLDKINQALPKGVDQIISYPRLGILLTADQKAACRLLLEEVTDYNYVMKSDERRRLSSIYIAVSTERVTIDKLMQINDVSRNTILNDLTELREELEDKQYKIQLHATKARGYYFGCHPMALIQYLYKLLVDVYQGGNTSFIDIFNRKLSEIQGLSVYFSKDILTYFHEYLFLSQASLGKTINTQDSQFMLQILPFMLLSYRNMRLDSETKSALKQEFHLIWKRKEYHIAQDLARELYHNFKLHLDDIEVSMVAMLMLSFRKDQDHHVESQDYDDMRATISHFIDQLESRYQLHFTHKQDLLKRLTTHCKALVYRKAYGIFLVNPLTDHVKEKYEELFAMTQSCATILEQDWTISLTDDDIAYLTIHLGGELRHNNTEQEKTKLVIVSDDGIGIQKLLFKQCQRYLANGQIEAVFTTEQYQSVYDLLAVDMIVATTDTLKTKIPMLIVNPILSDDDIIKLIRFSKQGRLSEHSRFSTELTKAIEAVVKDESDRYALVSKIEKLIHRELL | not soluble
15 | GMIGDGIENSPLLTDLAFPYRLLGAGKESRECLFLLHGSGVDETTLVPLARRIAPTATLVAARGRIPQEDGFRWFERIDPTRFEQKSILAETAAFAAFTNEAAKRHGLNLDHATFLGYSNGANLVSSLMLLHPGIVRLAALLRPMPVLDHVPATDLAGIRTLIIAGAADETYGPFVPALVTLLSRHGAEVDARIIPSGHDIGDPDAAIVRQWLAGPIAIAQAD | soluble
16 | MGSDKIHHHHHHMKITNFEQTGLCEIEGILSIENTENIEVSELREILKCANVSFVLEGINRLQSTLICELKASYVQQSQRYVTLKENSFDLPDLRHEDELKAKELLRKAFELYEEMSRLKEGQFKGRPKAENYLYGIPIEDARYILPLACKTNISMAMNGEKLIDFFYLLNDRHYSEIFSDLKKLVLSKLPEKLSLFLSKLKSNYNRKLIENFYKSAFDKISECDNIVLLNSFEDLDLKVGLGAITSTHDKTPSEVMELWGDNATEKAKGVSERVLGYGHESIAEQARTTFGMMCSMVTYHQQIRHRLSENHREALFNIIQDEKREVVVPSTVKESEFYNRFVELTHEFKKFRKYVLKEYGEEKSLNFLLNCDRIKLVISTNARIDCQMLADRICFNAQWEIRELSTKKLEKLRKLSQVLYVKALPSCVFGKCKEGKFTCGKQMIMKNKFA | not soluble
17 | GGLTEICRKPVSPGCISSVSDWLISIGLPMYAGTLSTAGFSTLSQVPSLSHTCLQEAGITEERHIRKLLSAARLFKLPPGPEAM | soluble
18 | MWPTHDLPILSNKSLILRKLQIEDTPRLVELAQDPAMRNFTTIPSPFTVENALEFISSSSVPTDSLVRWAIATADKPSIYLGTIELRAQSPICVDIGYSLHPHARGLGIMPKAVRLVSNYALSVGFHRVEIKIRTSNVASRRATERARATFEGIAHKAELHRGSIYDLAIYSITS | not soluble
19 | MSLKYLLLGMMLLGSFAASAGMDPQQLKQTIEQRLGVQVYLVDETPMPGLYMLGTAQGLLYTDARGDYVLQGTMLDLAHDMKNLTMLGLRQQRQLALAQIGERRVQLRAEQERHRVTLFTDLACSSCRTTLAELPVLQARGVSVQLLPVLGTFADLAEAQARWCDPRQFDALDLSDRLPETGCNEILAHHIGLSQWLGIKALPSWVLPNGDLVRGYQSPEQLLKILDHINAPANPSSEGHHHHHH | soluble
20 | ASCETTVTSGDTMTYSTRSISVPASCAEFTVNFEHKGHMPKTGMGHNWVLAKSADVGDVAKEGAHAGADNNFVTPGDKRVIAFTPIIGGGEKTSVKFKVSALSKDEAYTYFCSYPGHFSMMRGTLKLEE | soluble
21 | MAGDPMQQSDVISAAKKYMESIHQNDYTGHDIAHVYRVTALAKSIAENEGVNDTLVIELACLLHDTVDEKVVDANKQYVELKSFLSSLSLSTEDQEHILFIINNMSYRNGKNDHVTLSLEGQIVRDADRLDAIGAIGVARTFQFAGHFGEPMWTEHMSLDKINDDLVEQLPPSAIKHFFEKLLKLESLMHTDTAKMIAKERHDFMMMYLKQFFTEWNYHDLEHHHHHH | soluble
22 | MAFNGAMSVGAQISDAVILAHSPKSCTHIMYQTISSAGRRTLFERGALLPVSLAPNLESTDMGEAEMIFGGMEKLEEKILELKARQPRAIVVVSACPAGIIGDDIGRTRRFSEPGLPVVTLKTDGNLAGDYLQGMLMAYTSLARQVIRLEHHHHHH | not soluble
23 | IVGLRVGAAAEFALSNDGFYLAPGLAYTMRGAKMESLSETTTRLHYLQIPVNAGMRFSFADNMAISLEAGPYFAYGVAGTIKTKVAGVTASVDAFGDNGYNRFDLGLGLSAALSYDRYYVQIGYEHGLLNMLKDAPDKTSLRNHDFFVGLGVRF | not soluble
